# Data reported in IntAct's records for PubMed 16278218.
# B1: Heat shock factor protein 1 (Homo sapiens), Q00613 (parent)
# chain: MDLPVGPGAAGPSNVPAFLTKLWTLVSDPDTDALICWSPSGNSFHVFDQGQFAKEVLPKYFKHNNMASFVRQLNMYGFRKVVHIEQGGLVKPERDDTEFQHPCFLRGQEQLLENIKRKVTSVSTLKSEDIKIRQDSVTKLLTDVQLMKGKQECMDSKLLAMKHENEALWREVASLRQKHAQQQKVVNKLIQFLISLVQSNRILGVKRKIPLMLNDSGSAHSMPKYSRQFSLEHVHGSGPYSAPSPAYSSSSLYAPDAVASSGPIISDITELAPASPMASPGGSIDERPLSSSPLVRVKEEPPSPPQSPRVEEASPGRPSSVDTLLSPTALIDSILRESEPAPASVTALTDARGHTDTEGRPPSPPPTSTPEKCLSVACLDKNELSDHLDAMDSNLDNLQTMLSSHGFSVDTSALLDLFSPSVTVPDMSLPDLDSSLASIQELLSPQEPPRPPEAENSSPDSGKQLVHYTAQPLFLLDPGSVDTGSNDLPVLFELGEGSYFSEGDGFAEDPTISLLTGSEPPKAKDPTVS
# Variants of: B1
# Conditions: with mapk2_human MAPKAPK2, P49137
# Chain of mapk2_human MAPKAPK2, P49137 (P49137 whole entry, looked up): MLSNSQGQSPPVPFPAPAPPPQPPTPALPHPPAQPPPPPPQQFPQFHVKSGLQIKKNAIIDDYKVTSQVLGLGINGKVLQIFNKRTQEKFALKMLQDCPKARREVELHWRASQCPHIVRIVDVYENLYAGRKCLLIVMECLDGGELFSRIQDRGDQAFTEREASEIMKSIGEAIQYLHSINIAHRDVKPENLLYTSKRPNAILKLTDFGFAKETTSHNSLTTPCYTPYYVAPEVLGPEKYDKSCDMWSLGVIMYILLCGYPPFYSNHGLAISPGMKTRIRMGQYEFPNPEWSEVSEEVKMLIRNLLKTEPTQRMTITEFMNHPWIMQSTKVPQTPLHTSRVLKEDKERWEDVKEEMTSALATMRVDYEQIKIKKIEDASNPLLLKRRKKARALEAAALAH
row,effect of a mutation on the interaction,Variant
1,decreasing interaction,MDLPVGPGAAGPSNVPAFLTKLWTLVSDPDTDALICWSPSGNSFHVFDQGQFAKEVLPKYFKHNNMASFVRQLNMYGFRKVVHIEQGGLVKPERDDTEFQHPCFLRGQEQLLENIKRKVTDVSTLKSEDIKIRQDSVTKLLTDVQLMKGKQECMDSKLLAMKHENEALWREVASLRQKHAQQQKVVNKLIQFLISLVQSNRILGVKRKIPLMLNDSGSAHSMPKYSRQFSLEHVHGSGPYSAPSPAYSSSSLYAPDAVASSGPIISDITELAPASPMASPGGSIDERPLSSSPLVRVKEEPPSPPQSPRVEEASPGRPSSVDTLLSPTALIDSILRESEPAPASVTALTDARGHTDTEGRPPSPPPTSTPEKCLSVACLDKNELSDHLDAMDSNLDNLQTMLSSHGFSVDTSALLDLFSPSVTVPDMSLPDLDSSLASIQELLSPQEPPRPPEAENSSPDSGKQLVHYTAQPLFLLDPGSVDTGSNDLPVLFELGEGSYFSEGDGFAEDPTISLLTGSEPPKAKDPTVS [S121D]
2,increasing interaction,MDLPVGPGAAGPSNVPAFLTKLWTLVSDPDTDALICWSPSGNSFHVFDQGQFAKEVLPKYFKHNNMASFVRQLNMYGFRKVVHIEQGGLVKPERDDTEFQHPCFLRGQEQLLENIKRKVTAVSTLKSEDIKIRQDSVTKLLTDVQLMKGKQECMDSKLLAMKHENEALWREVASLRQKHAQQQKVVNKLIQFLISLVQSNRILGVKRKIPLMLNDSGSAHSMPKYSRQFSLEHVHGSGPYSAPSPAYSSSSLYAPDAVASSGPIISDITELAPASPMASPGGSIDERPLSSSPLVRVKEEPPSPPQSPRVEEASPGRPSSVDTLLSPTALIDSILRESEPAPASVTALTDARGHTDTEGRPPSPPPTSTPEKCLSVACLDKNELSDHLDAMDSNLDNLQTMLSSHGFSVDTSALLDLFSPSVTVPDMSLPDLDSSLASIQELLSPQEPPRPPEAENSSPDSGKQLVHYTAQPLFLLDPGSVDTGSNDLPVLFELGEGSYFSEGDGFAEDPTISLLTGSEPPKAKDPTVS [S121A]
